# Biological target: T1, human tissue factor (human, UniProt P13726 33-251, limits assumed)
# T1 construct: construct not described; also called TF
# Test: phage ELISA, solution competition: Fab-phage incubated with serially diluted TF, unbound phage captured on TF-coated wells; IC50 used as affinity estimate
row,IC50 [nM],Binder
1,10,"D3 library clone, CDR-L2 YETGWAE (Fab, V domains shown, Changes against the D3 direct graft (Kabat): VL A51E, S53G, L54W, D56E; copies: 1 + 1) VH: EVQLVESGGGLVQPGGSLRLSCAASGFNIKDYYMHWVRQAPGKGLEWVGWIDPENGNTIYDPKFQDRFTISADTSKNTAYLQMNSLRAEDTAVYYCARDTAAYFDYWGQGTLVTVSS VL: DIQMTQSPSSLSASVGDRVTITCKASRDIKSYLSWYQQKPGKAPKLLIYYETGWAEGVPSRFSGSGSGTDFTLTISSLQPEDFATYYCLQHGESPFTFGQGTKVEIK"
2,11,"D3 library clone, CDR-L2 YETGEPE (Fab, V domains shown, Changes against the D3 direct graft (Kabat): VL A51E, S53G, L54E, A55P, D56E; copies: 1 + 1) VH: EVQLVESGGGLVQPGGSLRLSCAASGFNIKDYYMHWVRQAPGKGLEWVGWIDPENGNTIYDPKFQDRFTISADTSKNTAYLQMNSLRAEDTAVYYCARDTAAYFDYWGQGTLVTVSS VL: DIQMTQSPSSLSASVGDRVTITCKASRDIKSYLSWYQQKPGKAPKLLIYYETGEPEGVPSRFSGSGSGTDFTLTISSLQPEDFATYYCLQHGESPFTFGQGTKVEIK"
3,16,"D3 library clone, CDR-L2 YTAGPSD (Fab, V domains shown, Changes against the D3 direct graft (Kabat): VL A51T, T52A, S53G, L54P, A55S; copies: 1 + 1) VH: EVQLVESGGGLVQPGGSLRLSCAASGFNIKDYYMHWVRQAPGKGLEWVGWIDPENGNTIYDPKFQDRFTISADTSKNTAYLQMNSLRAEDTAVYYCARDTAAYFDYWGQGTLVTVSS VL: DIQMTQSPSSLSASVGDRVTITCKASRDIKSYLSWYQQKPGKAPKLLIYYTAGPSDGVPSRFSGSGSGTDFTLTISSLQPEDFATYYCLQHGESPFTFGQGTKVEIK"
4,21,"D3 library clone, CDR-L2 YTTGPVD (Fab, V domains shown, Changes against the D3 direct graft (Kabat): VL A51T, S53G, L54P, A55V; copies: 1 + 1) VH: EVQLVESGGGLVQPGGSLRLSCAASGFNIKDYYMHWVRQAPGKGLEWVGWIDPENGNTIYDPKFQDRFTISADTSKNTAYLQMNSLRAEDTAVYYCARDTAAYFDYWGQGTLVTVSS VL: DIQMTQSPSSLSASVGDRVTITCKASRDIKSYLSWYQQKPGKAPKLLIYYTTGPVDGVPSRFSGSGSGTDFTLTISSLQPEDFATYYCLQHGESPFTFGQGTKVEIK"
5,10,"D3 library clone, CDR-L2 YVPWTAD (Fab, V domains shown, Changes against the D3 direct graft (Kabat): VL A51V, T52P, S53W, L54T; copies: 1 + 1) VH: EVQLVESGGGLVQPGGSLRLSCAASGFNIKDYYMHWVRQAPGKGLEWVGWIDPENGNTIYDPKFQDRFTISADTSKNTAYLQMNSLRAEDTAVYYCARDTAAYFDYWGQGTLVTVSS VL: DIQMTQSPSSLSASVGDRVTITCKASRDIKSYLSWYQQKPGKAPKLLIYYVPWTADGVPSRFSGSGSGTDFTLTISSLQPEDFATYYCLQHGESPFTFGQGTKVEIK"
6,9,"D3 library clone, CDR-L2 YETGPTD (Fab, V domains shown, Changes against the D3 direct graft (Kabat): VL A51E, S53G, L54P, A55T; copies: 1 + 1) VH: EVQLVESGGGLVQPGGSLRLSCAASGFNIKDYYMHWVRQAPGKGLEWVGWIDPENGNTIYDPKFQDRFTISADTSKNTAYLQMNSLRAEDTAVYYCARDTAAYFDYWGQGTLVTVSS VL: DIQMTQSPSSLSASVGDRVTITCKASRDIKSYLSWYQQKPGKAPKLLIYYETGPTDGVPSRFSGSGSGTDFTLTISSLQPEDFATYYCLQHGESPFTFGQGTKVEIK"
7,13,"D3 library clone, CDR-L3 LQDGESPFT (Fab, V domains shown, Change against the D3 direct graft (Kabat): VL H91D; Siblings 5; copies: 1 + 1) VH: EVQLVESGGGLVQPGGSLRLSCAASGFNIKDYYMHWVRQAPGKGLEWVGWIDPENGNTIYDPKFQDRFTISADTSKNTAYLQMNSLRAEDTAVYYCARDTAAYFDYWGQGTLVTVSS VL: DIQMTQSPSSLSASVGDRVTITCKASRDIKSYLSWYQQKPGKAPKLLIYYATSLADGVPSRFSGSGSGTDFTLTISSLQPEDFATYYCLQDGESPFTFGQGTKVEIK"

# Second part, the binder before the results:
row,Binder,IC50 [nM]
1,"D3 library clone, CDR-L1 KGQRVLNSWLS (Fab, V domains shown, Changes against the D3 direct graft (Kabat): VL A25G, S26Q, D28V, I29L, K30N, Y32W; copies: 1 + 1) VH: EVQLVESGGGLVQPGGSLRLSCAASGFNIKDYYMHWVRQAPGKGLEWVGWIDPENGNTIYDPKFQDRFTISADTSKNTAYLQMNSLRAEDTAVYYCARDTAAYFDYWGQGTLVTVSS VL: DIQMTQSPSSLSASVGDRVTITCKGQRVLNSWLSWYQQKPGKAPKLLIYYATSLADGVPSRFSGSGSGTDFTLTISSLQPEDFATYYCLQHGESPFTFGQGTKVEIK",21
2,"D3 library clone, CDR-L1 KGSGYIKHFVS (Fab, V domains shown, Changes against the D3 direct graft (Kabat): VL A25G, R27G, D28Y, S31H, Y32F, L33V; Siblings 2; copies: 1 + 1) VH: EVQLVESGGGLVQPGGSLRLSCAASGFNIKDYYMHWVRQAPGKGLEWVGWIDPENGNTIYDPKFQDRFTISADTSKNTAYLQMNSLRAEDTAVYYCARDTAAYFDYWGQGTLVTVSS VL: DIQMTQSPSSLSASVGDRVTITCKGSGYIKHFVSWYQQKPGKAPKLLIYYATSLADGVPSRFSGSGSGTDFTLTISSLQPEDFATYYCLQHGESPFTFGQGTKVEIK",9
3,"D3 library clone, CDR-L2 YATGETD (Fab, V domains shown, Changes against the D3 direct graft (Kabat): VL S53G, L54E, A55T; Siblings 2; copies: 1 + 1) VH: EVQLVESGGGLVQPGGSLRLSCAASGFNIKDYYMHWVRQAPGKGLEWVGWIDPENGNTIYDPKFQDRFTISADTSKNTAYLQMNSLRAEDTAVYYCARDTAAYFDYWGQGTLVTVSS VL: DIQMTQSPSSLSASVGDRVTITCKASRDIKSYLSWYQQKPGKAPKLLIYYATGETDGVPSRFSGSGSGTDFTLTISSLQPEDFATYYCLQHGESPFTFGQGTKVEIK",16
4,"D3 library clone, CDR-L2 YAPRRAR (Fab, V domains shown, Changes against the D3 direct graft (Kabat): VL T52P, S53R, L54R, D56R; Siblings 2; copies: 1 + 1) VH: EVQLVESGGGLVQPGGSLRLSCAASGFNIKDYYMHWVRQAPGKGLEWVGWIDPENGNTIYDPKFQDRFTISADTSKNTAYLQMNSLRAEDTAVYYCARDTAAYFDYWGQGTLVTVSS VL: DIQMTQSPSSLSASVGDRVTITCKASRDIKSYLSWYQQKPGKAPKLLIYYAPRRARGVPSRFSGSGSGTDFTLTISSLQPEDFATYYCLQHGESPFTFGQGTKVEIK",11
5,"D3 library clone, CDR-L2 YAPGLAD (Fab, V domains shown, Changes against the D3 direct graft (Kabat): VL T52P, S53G; Siblings 2; copies: 1 + 1) VH: EVQLVESGGGLVQPGGSLRLSCAASGFNIKDYYMHWVRQAPGKGLEWVGWIDPENGNTIYDPKFQDRFTISADTSKNTAYLQMNSLRAEDTAVYYCARDTAAYFDYWGQGTLVTVSS VL: DIQMTQSPSSLSASVGDRVTITCKASRDIKSYLSWYQQKPGKAPKLLIYYAPGLADGVPSRFSGSGSGTDFTLTISSLQPEDFATYYCLQHGESPFTFGQGTKVEIK",8
6,"D3 library clone, CDR-L2 RGTSLFE, VL K24E, D28V, Y32F (Fab, V domains shown, Changes against the D3 direct graft (Kabat): VL K24E, D28V, Y32F, Y50R, A51G, A55F, D56E; copies: 1 + 1) VH: EVQLVESGGGLVQPGGSLRLSCAASGFNIKDYYMHWVRQAPGKGLEWVGWIDPENGNTIYDPKFQDRFTISADTSKNTAYLQMNSLRAEDTAVYYCARDTAAYFDYWGQGTLVTVSS VL: DIQMTQSPSSLSASVGDRVTITCEASRVIKSFLSWYQQKPGKAPKLLIYRGTSLFEGVPSRFSGSGSGTDFTLTISSLQPEDFATYYCLQHGESPFTFGQGTKVEIK",10
7,"D3 library clone, CDR-L2 YEGSGKR (Fab, V domains shown, Changes against the D3 direct graft (Kabat): VL A51E, T52G, L54G, A55K, D56R; Siblings 8; copies: 1 + 1) VH: EVQLVESGGGLVQPGGSLRLSCAASGFNIKDYYMHWVRQAPGKGLEWVGWIDPENGNTIYDPKFQDRFTISADTSKNTAYLQMNSLRAEDTAVYYCARDTAAYFDYWGQGTLVTVSS VL: DIQMTQSPSSLSASVGDRVTITCKASRDIKSYLSWYQQKPGKAPKLLIYYEGSGKRGVPSRFSGSGSGTDFTLTISSLQPEDFATYYCLQHGESPFTFGQGTKVEIK",12
8,"D3 library clone, CDR-L1 NASLVINRWLS (Fab, V domains shown, Changes against the D3 direct graft (Kabat): VL K24N, R27L, D28V, K30N, S31R, Y32W; copies: 1 + 1) VH: EVQLVESGGGLVQPGGSLRLSCAASGFNIKDYYMHWVRQAPGKGLEWVGWIDPENGNTIYDPKFQDRFTISADTSKNTAYLQMNSLRAEDTAVYYCARDTAAYFDYWGQGTLVTVSS VL: DIQMTQSPSSLSASVGDRVTITCNASLVINRWLSWYQQKPGKAPKLLIYYATSLADGVPSRFSGSGSGTDFTLTISSLQPEDFATYYCLQHGESPFTFGQGTKVEIK",16
9,"D3 library clone, CDR-L2 YEPGLAD (Fab, V domains shown, Changes against the D3 direct graft (Kabat): VL A51E, T52P, S53G; copies: 1 + 1) VH: EVQLVESGGGLVQPGGSLRLSCAASGFNIKDYYMHWVRQAPGKGLEWVGWIDPENGNTIYDPKFQDRFTISADTSKNTAYLQMNSLRAEDTAVYYCARDTAAYFDYWGQGTLVTVSS VL: DIQMTQSPSSLSASVGDRVTITCKASRDIKSYLSWYQQKPGKAPKLLIYYEPGLADGVPSRFSGSGSGTDFTLTISSLQPEDFATYYCLQHGESPFTFGQGTKVEIK",7
10,"D3 library clone, CDR-L2 YAPGPAD (Fab, V domains shown, Changes against the D3 direct graft (Kabat): VL T52P, S53G, L54P; copies: 1 + 1) VH: EVQLVESGGGLVQPGGSLRLSCAASGFNIKDYYMHWVRQAPGKGLEWVGWIDPENGNTIYDPKFQDRFTISADTSKNTAYLQMNSLRAEDTAVYYCARDTAAYFDYWGQGTLVTVSS VL: DIQMTQSPSSLSASVGDRVTITCKASRDIKSYLSWYQQKPGKAPKLLIYYAPGPADGVPSRFSGSGSGTDFTLTISSLQPEDFATYYCLQHGESPFTFGQGTKVEIK",10
11,"D3 library clone, CDR-L2 YESGPAD (Fab, V domains shown, Changes against the D3 direct graft (Kabat): VL A51E, T52S, S53G, L54P; Siblings 2; copies: 1 + 1) VH: EVQLVESGGGLVQPGGSLRLSCAASGFNIKDYYMHWVRQAPGKGLEWVGWIDPENGNTIYDPKFQDRFTISADTSKNTAYLQMNSLRAEDTAVYYCARDTAAYFDYWGQGTLVTVSS VL: DIQMTQSPSSLSASVGDRVTITCKASRDIKSYLSWYQQKPGKAPKLLIYYESGPADGVPSRFSGSGSGTDFTLTISSLQPEDFATYYCLQHGESPFTFGQGTKVEIK",8
12,"D3 library clone, CDR-L2 YAPSLAD (Fab, V domains shown, Change against the D3 direct graft (Kabat): VL T52P; copies: 1 + 1) VH: EVQLVESGGGLVQPGGSLRLSCAASGFNIKDYYMHWVRQAPGKGLEWVGWIDPENGNTIYDPKFQDRFTISADTSKNTAYLQMNSLRAEDTAVYYCARDTAAYFDYWGQGTLVTVSS VL: DIQMTQSPSSLSASVGDRVTITCKASRDIKSYLSWYQQKPGKAPKLLIYYAPSLADGVPSRFSGSGSGTDFTLTISSLQPEDFATYYCLQHGESPFTFGQGTKVEIK",4
13,"D3 library clone, CDR-L2 DAIGLAD (Fab, V domains shown, Changes against the D3 direct graft (Kabat): VL Y50D, T52I, S53G; copies: 1 + 1) VH: EVQLVESGGGLVQPGGSLRLSCAASGFNIKDYYMHWVRQAPGKGLEWVGWIDPENGNTIYDPKFQDRFTISADTSKNTAYLQMNSLRAEDTAVYYCARDTAAYFDYWGQGTLVTVSS VL: DIQMTQSPSSLSASVGDRVTITCKASRDIKSYLSWYQQKPGKAPKLLIYDAIGLADGVPSRFSGSGSGTDFTLTISSLQPEDFATYYCLQHGESPFTFGQGTKVEIK",17
14,"D3 library clone, CDR-L1 KGSRDTTSFVS (Fab, V domains shown, Changes against the D3 direct graft (Kabat): VL A25G, I29T, K30T, Y32F, L33V; copies: 1 + 1) VH: EVQLVESGGGLVQPGGSLRLSCAASGFNIKDYYMHWVRQAPGKGLEWVGWIDPENGNTIYDPKFQDRFTISADTSKNTAYLQMNSLRAEDTAVYYCARDTAAYFDYWGQGTLVTVSS VL: DIQMTQSPSSLSASVGDRVTITCKGSRDTTSFVSWYQQKPGKAPKLLIYYATSLADGVPSRFSGSGSGTDFTLTISSLQPEDFATYYCLQHGESPFTFGQGTKVEIK",19

# Source: patent publication US20110237779A1 (Genentech, published 2011)
